According to patent WO2020135415A1 (dated 2020):

Assays:
human PD-L1 protein = biological target: T1, human PD-L1 protein (human, UniProt Q9NZQ7 19-238, limits assumed); assay: binding to human PD-L1 protein; method not stated
T1 construct: also called hPD-L1; huPD-L1

PD-L1 expressed by DC = assay: cell-based or functional assay
Sequence of PD-L1 expressed by DC (Q9NZQ7 whole entry): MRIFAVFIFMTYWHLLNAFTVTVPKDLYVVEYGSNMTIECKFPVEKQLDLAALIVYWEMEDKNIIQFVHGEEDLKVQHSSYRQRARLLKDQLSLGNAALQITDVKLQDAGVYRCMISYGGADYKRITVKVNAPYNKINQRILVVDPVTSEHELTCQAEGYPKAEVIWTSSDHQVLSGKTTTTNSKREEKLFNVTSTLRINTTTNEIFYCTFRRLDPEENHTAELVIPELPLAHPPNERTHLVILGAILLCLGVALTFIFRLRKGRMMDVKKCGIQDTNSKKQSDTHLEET

T1 sequence (Q9NZQ7 19-238 limits assumed): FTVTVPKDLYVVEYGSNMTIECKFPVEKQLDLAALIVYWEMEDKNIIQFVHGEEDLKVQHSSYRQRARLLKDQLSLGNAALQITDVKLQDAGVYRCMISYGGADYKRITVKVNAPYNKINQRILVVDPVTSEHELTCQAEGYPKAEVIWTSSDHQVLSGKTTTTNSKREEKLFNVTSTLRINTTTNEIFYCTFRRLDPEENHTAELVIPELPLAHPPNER

EC50 (human PD-L1 protein): 0.0213 µg/mL
secretion of IFN-γ in MLR of CD4+:DC cells, EC50 (PD-L1 expressed by DC): 35 ng/mL
B1: hu5G11-hIgG1 (antibody, V domains shown)
VH: QITLKESGPTLVKPTQTLTLTCTVSGFSLSTYGVHWIRQPPGKALEWLGVIWRGVTTDYNAAFMSRLTITKDNSKNQVVLTMNNMDPVDTATYYCARLGFYAMDYWGQGTLVTVSS
VL: DIQMTQSPSSLSASVGDRVTITCKASQSVSNDVAWYQQKPGKAPKLLIYYAANRYTGVPDRFSGSGYGTDFTFTISSLQPEDIATYFCQQDYTSPYTFGQGTKLEIKR
